The supplement of paper PMC9170038

What follows are sequences tested on MS2 coat protein (assay: apparent KD of MS2 coat protein; higher = weaker reporter binding). Settings: Eterna round: R107; input ligand: theophylline 2 mM.
Outline: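 In 100 mM Tris-HCl pH 7.5 with 80 mM KCl and 4 mM MgCl2, and without or with constant ligand, SNAP-549-labelled MS2 coat protein was titrated in twofold steps from 0.7 or 1.5 nM to 3 µM. Per-step times went from 0.8–1.5 h down to 10–20 min. The RNA switches were transcribed on-chip from Illumina sequencing clusters, and apparent KD is the per-design median of normalised cluster binding-curve fits.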

| Sequence | apparent KD of MS2 coat protein [µM] |
| --- | --- |
| ACGGGCAUGGCGGCCGCCACUGGUUGGCGUGCGGAUGAGGGAACAUGAGGAUCACCCAUGUUGGUUAGGACCGGGCUGGCGUCGA [kkymullin] | 0.016 |
| UCACAUGAGGAUCACCCAUGUACAGGCGAUACCAGCCGUACAUUGGGCCCUUGGCAGCGCACCGAGGACUUUUUAAGCAUCUCGG [Diatbeen] | 0.282 |
| AGCAGCUCGAAAGAGUUGCACUCAUGUGAAGGAGCGCCCGUUAGGGCAGGUAGGUCGCACAUGAGGAUCACCCAUGUACCUUCUA [ArgAX 20 #OpenEnded #MS2Late] | 0.273 |
| UUGUUGUUUGGAAGGAGCGUGUAUGAGUUAGAACAUGAGGAUCACCCAUGUUGGAUGAUAGCACAGGUAGGUCGCCGGGUGGUGG [11.Y] | 0.0668 |
| CUAUAUUAUAGAAGGAGCGUCGAAAAUGGGUAAACAUGAGGAUCACCCAUGUAAAGGGAACGACAGGUAGGUCGCUAUAAUAUAG [AstromonsSSArgB#13] | 0.252 |
| ACAUGAGGAUCACCCAUGUUUGUUGUUCCUCGAGGACCGGUACGGCCGCCACUCGAACGAGUGGCGCGCGCGCGCGCGCGCGCGC [aMa] | 0.0164 |
| GCGAUGGAGCGAAGGAGCGUGCUAGUACAUGAGGAUCACCCAUGUGAGUCGCAUCGCUAAGCACAGGUAGGUCGCGCUCCAUCGC [EAB NP+V+V2 #9] | 0.145 |

Same assay, conditions: Eterna round: R107; input ligand: tryptophan 2.4 mM

| Sequence | apparent KD of MS2 coat protein [µM] |
| --- | --- |
| AAUAAAUCGCCUGAUACCAGCGCUGGCGGACAUGAGGAUCACCCAUGUGUUACAGGCGGACGCCCUUGGCAGCGGAGCGGGAUCU [U-Shape] | 0.0196 |
| GUGGAGACAUGAGAUACCAGUCUCUUUAACAUGAGGAUCACCCAUGUAAUGCUCCUCGGAGACCCUUGGCAGCUCAGUAUGAUGA [#09 Exclusion-TheophyllineB] | 0.0344 |
| GCACAAGAUGGAAGGAGCGCUGGUAAAGGUCACAUGAGGAUCACCCAUGUGCUCCUUGCCGAGCAGGUAGGUCGCCAUCUUGUGC [SSAB NP+V+V2 #3] | 0.0117 |
| AAUAAUAACUGAAGGAGCGUCUAUAUUACAUGAGGAUCACCCAUGUUUAUAUGGUAUUAUAGACAGGUAGGUCGCAGAUUUUUUA [JR_SSArginiB_Sub016] | 0.0163 |
| UUGCAGAUCGGAAAGGUCCUGCUGUUCGAAGGAGCGGUAAAAGUACCAGGUAGGUCGCGAACAUGAGGAUCACCCAUGUUUGCAA [Usmaenbi] | 0.0211 |
| AUACCUAAUGUUACAUUUACCUUAUCAGAUACCAGACUUUACGUUGUCCCUUGGCAGCUGUAUCACAUGAGGAUCACCCAUGUUG [JR_SSTheophyA_Sub010] | 0.0153 |
| AUGUCGUUGAAUAUAGCGGCUUGGUGUGAUACCAGAAUGAUCUAAUUCCCUUGGCAGCAUUACAUGAGGAUCACCCAUGUUCCAG [SSTheo A #21] | 0.0487 |
| CCCAUACAUGAGGAUCACCCAUGUGUUGAUACCAGCAUAUGUAGAUGCCCUUGGCAGCAAGCUUGGGUCACUGGAAAACAUCUAA [theeternabot_sameState_MS2_Theo_A_38] | 0.0226 |
| AACAUGAGGAUCACCCAUGUGUCCUCGAAACGAGGACCGGUACGGCCGCCACUCGAGCUAUGUUGACGAAAAGUCAGCAUAGCAA [Mat - Exclusion - Trytophan A - D13] | 1.08 |
| ACACAUGAGGAUCACCCAUGUAAAGUUGAAGGAGCGAUCAUUAGGUCAGGUAGGUCGCAGCACAUGAGGAUCACCCAUGUCGUGA [DOUBLE!!! :-D #2] | 0.0869 |
| GUCGCUGAGGGAAGGAGCGUGAAGACAUGAGGAUCACCCAUGUAGAGGCGCCGAAGGCGUUCGCAGGUAGGUCGCCCUCAGUGAC [#1 Same State - Arginine B Attempt #22 (HarryS)] | 0.0168 |
| GGUGGCGGGACUGAUACCAGCCACCACCGAUAGACCACAUGAGGAUCACCCAUGUUGGGUGGCCCUUGGCAGCAGUCUUGCGGCG [#1 Same State - Theophylline B Attempt #15 (HarryS)] | 1.29 |
| GGGCCCGGCCGAAAGGCCGGGCCCGCUGAAGGAGCGGGAAAUAACCCAGGUAGGUCGCAGAGAUCCACAUGAGGAUCACCCAUGU [#26 Exclusion - Arginine A] | 0.0444 |
| AACCGAGGCUAUCCUCUAAGAAUAUGUGAUACCAGAAUAAUUUUAUUCCCUUGGCAGCAUGACAUGAGGAUCACCCAUGUGUCUU [SSTheo A #7] | 0.136 |
| UAGACGGCCGGAAGGAGCGGUACAUGAGGAUCACCCAUGUACUUCUGGGCAUCCGUAGUGUGCCAGGUAGGUCGCCGGUUGCGGG [XArg-B20] | 0.0199 |
| CAACUGGCAGAGGAUACCAGAUCAUUUAGAAACAUGAGGAUCACCCAUGUCGUAAGGAUAAUCCCUUGGCAGCCUAUCCGCCUCG [theeternabot_sameState_MS2_Theo_B_48] | 0.0145 |
| CUAAGAGCGGCGGCCGCCACUGGUAACCAAGAGGCGGAGCCUCUGACAUGAGGAUCACCCAUGUUCAGGACCGGGUCGUCUUAGA [#07 Same State - Tryptophan B] | 0.0109 |

| Sequence | apparent KD of MS2 coat protein [µM] |
| --- | --- |
| GGAUAGGACAGAAGGAGCGACAUGGCAGAAACUGCAAUCCUCCUACACGAGGAUCACCCGUGUCAGGUAGGUCGCUGUCCUAUCG [ArgXB 12 #Zipper #MS2Left #StaticStem #Blueprint] | 0.0274 |
| CUAUCCUUGCCGGAUGAAGGACACUGAGAAGGAGCGCGGUAAUCCGCAGGUAGGUCGCUCAGGAGUACAUGAGGAUCACCCAUGU [Xeonrave] | 0.0207 |
| CUGACGUAGGAAGAUAUCUGGAACAAGGAUACCAGUAAACCAACAUACCCUUGGCAGCCUAAAACAUGAGGAUCACCCAUGUAAU [theeternabot_exclusion_MS2_Theo_A_26] | 0.0137 |
| ACGAACGCACCUGAGGAUCACCCGGGUGAUACCAGCCUGGAAACAGGCCCUUGGCAGCACCUAAAAUAAAGGUAACGUUCGAAUA [TheoAX9 #MicroSwitchBubble #AlternativeMS2] | 0.303 |
| CACGGAUGAGUGGAUCACCCUCAUAAUAACCGAGGACCGGUACGGCCGCCACUCGAAAACCGUGACCUGUACGAAAAGUGCAGGA | 0.708 |
| UGAGAUCCUCAUGAUACCAGUGUACUACAUGAGGAUCACCCAUGUAGCAACAUCUGUAGACACCCUUGGCAGCAUGAGACCACGU [Theo B SS t5] | 0.0156 |
| ACGGGCAUGGCGGCCGCCACUGGUUGGCGUGCGGAUGAGGGAACAUGAGGAUCACCCAUGUUGGUUAGGACCGGGCUGGCGUCGA [kkymullin] | 0.018 |
| UCACAUGAGGAUCACCCAUGUACAGGCGAUACCAGCCGUACAUUGGGCCCUUGGCAGCGCACCGAGGACUUUUUAAGCAUCUCGG [Diatbeen] | 0.0238 |
| AGCAGCUCGAAAGAGUUGCACUCAUGUGAAGGAGCGCCCGUUAGGGCAGGUAGGUCGCACAUGAGGAUCACCCAUGUACCUUCUA [ArgAX 20 #OpenEnded #MS2Late] | 0.188 |
| UUGUUGUUUGGAAGGAGCGUGUAUGAGUUAGAACAUGAGGAUCACCCAUGUUGGAUGAUAGCACAGGUAGGUCGCCGGGUGGUGG [11.Y] | 0.011 |
| CUAUAUUAUAGAAGGAGCGUCGAAAAUGGGUAAACAUGAGGAUCACCCAUGUAAAGGGAACGACAGGUAGGUCGCUAUAAUAUAG [AstromonsSSArgB#13] | 0.195 |
| ACAUGAGGAUCACCCAUGUUUGUUGUUCCUCGAGGACCGGUACGGCCGCCACUCGAACGAGUGGCGCGCGCGCGCGCGCGCGCGC [aMa] | 0.0126 |
| GCGAUGGAGCGAAGGAGCGUGCUAGUACAUGAGGAUCACCCAUGUGAGUCGCAUCGCUAAGCACAGGUAGGUCGCGCUCCAUCGC [EAB NP+V+V2 #9] | 0.0876 |
| UCUUUCUUUGUAGAUACCAGCGUGUUAUCUUUCUUUUGACAUGAGGAUCACCCAUGUAUAUGCCCUUGGCAGCUACAUAUUCUUU [#01 Same State - Theophylline B] | 0.0182 |
| ACUUUGUCGGGUGAUACCAGCCUCGGCAAAUCUCGUGCCGAACAUGAGGAUCACCCAUGUGGCCCUUGGCAGCACAUGACAACUC [Cezara] | 0.912 |
| AUUAAUUGUCGUGAUACCAGACAUACAUGAGGAUCACCCAUGUUAAGUAACAUUUUUUAUGUCCCUUGGCAGCACUUUUUAAUUA [JR_Nu_SSTheophyB_Sub017] | 0.0197 |
